Reference: article PMC5645109 (PLoS ONE, 2017)

Target: T1, Torpedo nAChR (extract from the electric organ of Torpedo californica) (Tetronarce californica (Torpedo …, UniProt P02710;P02712;P02714;P02718))
T1 construct: acetylcholine receptor α-subunit, Torpedo californica; acetylcholine receptor β-subunit, Torpedo californica; acetylcholine receptor γ-subunit, Torpedo californica; acetylcholine receptor δ-subunit, Torpedo californica; also called torpedo AChR antigen; source: extract of the electric organ of Torpedo californica (gift, University of Nagasaki); copies: + + +
T1 sequence (P02718 whole entry, looked up, chain 1 of 4): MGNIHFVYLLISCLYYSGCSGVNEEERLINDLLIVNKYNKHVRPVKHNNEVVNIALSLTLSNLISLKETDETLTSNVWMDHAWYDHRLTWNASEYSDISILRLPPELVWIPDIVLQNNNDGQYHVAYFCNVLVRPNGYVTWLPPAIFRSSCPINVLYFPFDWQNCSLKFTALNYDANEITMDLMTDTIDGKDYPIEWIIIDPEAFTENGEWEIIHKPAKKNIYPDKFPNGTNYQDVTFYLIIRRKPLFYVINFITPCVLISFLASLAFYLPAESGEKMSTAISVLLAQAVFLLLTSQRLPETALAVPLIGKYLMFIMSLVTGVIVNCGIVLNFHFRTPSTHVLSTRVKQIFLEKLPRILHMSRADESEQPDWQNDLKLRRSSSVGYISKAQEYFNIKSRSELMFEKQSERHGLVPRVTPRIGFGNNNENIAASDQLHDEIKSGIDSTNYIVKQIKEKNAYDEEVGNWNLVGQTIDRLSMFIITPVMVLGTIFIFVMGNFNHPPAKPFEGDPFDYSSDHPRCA
T1 sequence (P02714 whole entry, looked up, chain 2 of 4): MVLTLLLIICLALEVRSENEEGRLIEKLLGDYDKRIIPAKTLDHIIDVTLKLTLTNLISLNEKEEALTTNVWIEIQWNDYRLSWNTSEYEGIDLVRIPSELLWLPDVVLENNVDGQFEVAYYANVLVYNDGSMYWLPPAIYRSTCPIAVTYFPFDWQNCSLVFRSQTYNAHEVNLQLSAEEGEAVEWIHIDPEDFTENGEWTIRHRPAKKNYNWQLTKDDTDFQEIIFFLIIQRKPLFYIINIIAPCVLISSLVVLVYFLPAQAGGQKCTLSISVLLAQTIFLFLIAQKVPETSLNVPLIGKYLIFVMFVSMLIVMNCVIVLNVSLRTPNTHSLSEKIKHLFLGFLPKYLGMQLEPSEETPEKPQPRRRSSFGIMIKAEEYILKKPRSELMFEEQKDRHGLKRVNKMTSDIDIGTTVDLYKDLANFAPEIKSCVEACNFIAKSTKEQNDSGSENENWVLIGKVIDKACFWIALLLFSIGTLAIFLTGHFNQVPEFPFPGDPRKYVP
T1 sequence (P02712 whole entry, looked up, chain 3 of 4): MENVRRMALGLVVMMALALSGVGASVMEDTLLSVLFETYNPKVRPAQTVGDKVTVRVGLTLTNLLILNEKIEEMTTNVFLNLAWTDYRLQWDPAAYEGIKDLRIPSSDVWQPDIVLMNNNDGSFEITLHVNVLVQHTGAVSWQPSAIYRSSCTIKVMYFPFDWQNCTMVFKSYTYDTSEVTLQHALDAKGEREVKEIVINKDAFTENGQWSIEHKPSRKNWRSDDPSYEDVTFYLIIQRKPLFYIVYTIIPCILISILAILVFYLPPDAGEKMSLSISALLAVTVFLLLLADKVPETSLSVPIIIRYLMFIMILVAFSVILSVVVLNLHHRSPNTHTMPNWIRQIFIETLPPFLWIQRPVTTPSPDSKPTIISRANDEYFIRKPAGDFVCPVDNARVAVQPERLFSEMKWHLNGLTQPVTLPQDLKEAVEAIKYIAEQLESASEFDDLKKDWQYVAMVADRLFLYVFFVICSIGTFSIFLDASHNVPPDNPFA
T1 sequence (P02710 whole entry, looked up, chain 4 of 4): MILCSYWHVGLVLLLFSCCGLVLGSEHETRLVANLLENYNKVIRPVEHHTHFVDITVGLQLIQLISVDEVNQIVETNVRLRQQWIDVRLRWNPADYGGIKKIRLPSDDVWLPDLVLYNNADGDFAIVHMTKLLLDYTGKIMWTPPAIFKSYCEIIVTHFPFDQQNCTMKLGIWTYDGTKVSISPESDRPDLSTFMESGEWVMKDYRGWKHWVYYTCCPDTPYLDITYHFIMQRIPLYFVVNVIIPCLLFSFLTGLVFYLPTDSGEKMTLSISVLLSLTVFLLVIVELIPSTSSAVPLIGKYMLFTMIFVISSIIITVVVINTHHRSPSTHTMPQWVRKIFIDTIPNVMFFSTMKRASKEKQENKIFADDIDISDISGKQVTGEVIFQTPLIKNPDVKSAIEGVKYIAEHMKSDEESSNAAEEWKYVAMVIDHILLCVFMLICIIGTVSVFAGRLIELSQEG
Test: radio immunoprecipitation assay; extract of the electric organ of Torpedo californica or extract of rat sciatic nerve as antigen; relative binding affinity; method of ref. 54
Conditions: one partner purified

B1: rat mAb35, anti-nAChR main immunogenic region antibody (rat IgG1) (antibody, V domains shown)
VH: EVQLQESGPGLVQPSETLSLTCTVSGFSLTSYSVSWLRQPSGKGPEWMGRMWDDGGTVYNSGLKSRLSISRDTSKNQVFLKMNSLQTDDTGTYYCTRDERIRAINWFAYWGQGTLVTVSS
VL: DIVITQSPSLLSASVGDRVTLTCKGSQNIDNYLAWYQQKLGEAPKLLIYKTNSLQTGIPSRFSGSGSGTDYTLTISSLHSEDLATYYCYQYINGYTFGTGTKLELK
notes: heavy chain of rat mAb35 (rat IgG1); light chain of rat mAb35; the hybridoma clone is named for the cDNA; also called mAb35 (rat); source: rat Hybridoma
binding result: binds
